This is an account of results in PMC7566566.

Sequences and labels used below:
B1: tRNATyr (TT_RS08805) (structured_RNA)
RNA: GGGCAGGUGCCCGAGCGGCCAAAGGGGACGGUCUGUAAAACCGUUGGCGUAUGCCUUCGCUGGUUCGAAUCCAGCCCUGCCCACCA
B2: RNA 2 (ssRNA)
RNA: UAGGGGCGUGUGGGCCCACCCGGCGUGGCGCUGGCUCCACC
B3: 50A (ssRNA)
RNA: AAAAAAAAAAAAAAAAAAAAAAAAAAAAAAAAAAAAAAAAAAAAAAAAAA
B4: RNA 9 (ssRNA)
RNA: CUGGCUUGCCCGGGAGAUCCUGGGCUACCCCGA
B5: tRNAPro (TT_RS01350) (structured_RNA)
RNA: CGGGGCGUAGCGCAGGCCGGUAGCGCACCUGCUUUGGGAGCAGGGGGUCGCCCGUUCAAAUCGGGCCGCCCCGACCA
B6: tRNAPro (TT_RS09670) (structured_RNA)
RNA: CGGGGAGUAGCGCAGCCUGGUAGCGCACACGCUUGGGGUGCGUGGGGUCGUCGGUUCAAAUCCGGCCUCCCCGACCA
B7: RNA 13 (ssRNA)
RNA: UUUGGGGCUGCGGGGCUGGACCCCACGGGCGCCGCCACCC
B8: tRNAPro (TT_RS02830) (structured_RNA)
RNA: CGGGGAGUAGCGCAGCCCGGUAGCGCACCUCGUUCGGGACGAGGGGGUCGCUGGUUCAAAUCCAGUCUCCCCGACCA
B9: 9mer DNA (ssDNA)
DNA: AGGTCCCAA
B10: tRNASer (TT_RS06780) (structured_RNA)
RNA: GGAGAGGUGGCCGAGUGGUCGAAGGCGGCACCCUGCUAAGGUGUUGCACCGGGAAAACCGGUGCCGCGGGUUCGAAUCCCGCCCUCUCCGCCA
B11: 50U (ssRNA)
RNA: UUUUUUUUUUUUUUUUUUUUUUUUUUUUUUUUUUUUUUUUUUUUUUUUUU
B12: tRNAGly (TT_RS08190) (structured_RNA)
RNA: GCGGGAGUAGCUCAGUCGGUAGAGCACGACCUUGCCAAGGUCGGGGUCGCGGGUUCAAGUCCCGUCUCCCGCUCCA
B13: RNA 1640 (ssRNA)
RNA: CUCGUGGCCCUGGCGAGGAGGCUCGUGGAGGAGUAC
B14: RNA 1638 (ssRNA)
RNA: GCCAAGCCGGGCCUGGAC
B15: RNA 1654 (ssRNA)
RNA: CCUGCACGUUCCCACCGCCUGGGU

The target of the first data set is T1, Hera (Thermus thermophilus, UniProt O07897 1-510).
T1 sequence: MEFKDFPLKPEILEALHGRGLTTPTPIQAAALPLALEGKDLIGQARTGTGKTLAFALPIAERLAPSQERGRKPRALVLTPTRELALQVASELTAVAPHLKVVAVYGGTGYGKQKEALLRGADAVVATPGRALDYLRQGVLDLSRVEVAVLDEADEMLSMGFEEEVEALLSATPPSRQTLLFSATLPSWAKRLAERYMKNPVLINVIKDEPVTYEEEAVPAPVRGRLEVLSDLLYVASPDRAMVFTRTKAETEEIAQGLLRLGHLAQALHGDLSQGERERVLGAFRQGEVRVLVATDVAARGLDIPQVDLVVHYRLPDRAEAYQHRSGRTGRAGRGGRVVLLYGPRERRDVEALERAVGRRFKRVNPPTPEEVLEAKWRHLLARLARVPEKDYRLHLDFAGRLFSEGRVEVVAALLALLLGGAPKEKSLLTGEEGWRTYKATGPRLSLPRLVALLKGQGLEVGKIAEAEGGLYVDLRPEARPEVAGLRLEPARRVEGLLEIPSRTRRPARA
Description: competition.
In the case of B1, the Kd (commonly the concentration at which binding is half-saturated) came out at 400 nM.

Consider B2, for which the binding result is listed as “binds”.

With B3, the binding result was “no binding”.

For B4, the binding result is “binds”.

In turn, B5 returned a Kd of 1400 nM.

On to B6, for which the Kd turned out to be 400 nM.

In the case of B7, the binding result was “binds”.

Take B8: the Kd is 600 nM.

Turning to B9, the binding result is reported as “no binding”.

Molecule B10 showed a Kd of 60 nM.

The molecule B11 displayed a Kd of 240 ± 50 nM.

Molecule B12 registered a Kd of 400 nM.

In a further data set the target is T1, Hera. As to the kind of experiment: competition. This is another data set of the same source.
On to B13, for which the binding result is given as “no binding”.

Consider B14, for which the binding result was “no binding”.

Another data set addresses T1, Hera. Description: competition. This is another data set of the same source.
Turning to B15, the binding result was “no binding”.
